This note sets out measurements from the nanobody polyreactivity screen of Harvey et al. (2022).

The data set is described as follows: yeast display, Sf9 membrane polyspecificity reagent, FACS + sequencing; frameworks hold sequencing errors. Put shortly:
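A synthetic nanobody library was expressed on Saccharomyces cerevisiae BJ5465 by galactose induction for 36–48 hours. The library was stained for 1 hour at 4 °C with 10% biotinylated, detergent-solubilized Sf9 membrane reagent and enriched with streptavidin microbeads before FACS. Low and high (top ~1%) gates were set on anti-HA fluorescence for expression and streptavidin fluorescence for reagent binding, and each polyreactivity label reflects the gate of origin.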
As to “QVQILESGGGLVQAGGSLGLSCAASGSTFPPYAMGWYRQAPGKERELVATITRGGSTYYADSVKGRFTFSRDNAKNTVYVQMNSLKPADTAVYDCNAKVNRSRRSNLYDYWGQGTQVTVSS”, the “polyreactivity (PSR sort gate)” value is recorded as “high polyreactivity”.

Consider “QVQIVASWGGLVQAGGSLRLSCAATGRIFEINAMGWYRQAPGKERELVAAITRSGGSTYYADSVKGRFTISRDYAKNTVYVQMNSLKPEDTAVYYCAARGRYWYSRYYSWGQGTQVTVSA”, for which the “polyreactivity (PSR sort gate)” value was “high polyreactivity”.

Consider “QVQIVDSGVGLVQAGGSLRLSCAASGSIFKYNAKGWYREAPGKVRELVAAIRWSGVGTRYADSVKGRFTISRVNAKNTVYLQMNSLKPEDTAVYSCAARYGRHRVSCYATWRYGYWGQGTQVTVSS”, for which the “polyreactivity (PSR sort gate)” value is “low polyreactivity”.

Take “QVQIVESCGGLFQAAGRLRLICADSRSIFSYNAMGWYRQAPGKERELVAAITSGGRTYYADSVKGRFTISRDNAKNTVYLQMNSLKPEDTGVYYCAAYQTGLHGFYSWGQGTQVTVSS”: the “polyreactivity (PSR sort gate)” value was “high polyreactivity”.

“QVQIVESCGGLVQAGGSLRLSCAASGITFDVNTMGWYRQAPGKEREMVAAITRDVTTNYADSVKGPFTISRDNAKNTVYLQMNSLKPEDTAVYYCAADGYGQYSQVTDHPYKYNYWRQGTQVTVSS”: the “polyreactivity (PSR sort gate)” value is “low polyreactivity”.

Regarding “QVQIVESGAGLVQAGGTLRISCAPSGITFTPYAMGWYRQAPGKEWELVATITSDGGSTYYADSVKGRFTISRDNAKNTVYLQKNSLKPEETAVYYCAAADHAWLYGWGYSLDVWYYYWGQGNQVTVSS”, the “polyreactivity (PSR sort gate)” value is on record as “low polyreactivity”.

As to “QVQIVESGAVIVQAGGSLRLSCAASGSTFGSYTMGWYRQAPGKERELVASISRDGRTKYADSVKGRFTISRDNATNTVYLQMKSLKPEDTAVYYCANSKWRGRGGTYDYWGQVTQVTVSS”, the “polyreactivity (PSR sort gate)” value is “high polyreactivity”.

As to “QVQIVESGGCLVQAGGSLRLSCAASGGTIGGNAMGWYRQAPGKQREMVAAITDIGGSTYYSDSVKGRFTISRDNAKNTVSLQKNCLKPEDTSVYFCATDEASNQDATYLYYYWGQGTQVTVSS”, the “polyreactivity (PSR sort gate)” value is reported as “low polyreactivity”.

For the sequence “QVQIVESGGGLEQAGGSLRLSCAASGRIFNRYAMGWYRQAPGKDWELVARNSWSGARTYYADSVKGRFTISRDNAKNTVYLQMNRLKPEDTAVSYCAAAVTYPAGGRTSLYEYWGQRTQVTVSS”, the “polyreactivity (PSR sort gate)” value is “high polyreactivity”.

For the sequence “QVQIVESGGGLFQAGGSLRISCAASGSTIRANPMGWYRQAPGKERELVAAITKNGGSTYYADSVKGRYTISRDNAKYTVYLPMNTLIPEDNGVYYCAARRSSRRPPYYYWGQGTQVTVSS”, the “polyreactivity (PSR sort gate)” value is “high polyreactivity”.

With “QVQIVESGGGLFQAGGSLRLSCAASGITFVFYAKRRYRQAPGKERELVAAISSSGGSTYYADSVKVRFTISRDYAKNSVYLQMKSLKPDDTAVYYCNAIVFSYQRAVRYDYWGQGTQVTVSS”, the “polyreactivity (PSR sort gate)” value is given as “high polyreactivity”.

For “QVQIVESGGGLLQAGGSLRLSCAASGGIFGRYAMGWYRQAPGKERELVAAITTRGTSTYYADSVKGRFTISRDNAMNTVYLQMNSLKPEDTAVYYCSAAYGRHPSSGSWGQGTQVTVSS”, the “polyreactivity (PSR sort gate)” value is on record as “high polyreactivity”.

For the sequence “QVQIVESGGGLVKAGGSLRLSCAASGSTFERYAMGWYRQAPGKERELVAAINWSGGGTYYADSVKGRFTISRDNAKNTVYLQMNSLKPEDTAVYYCAADSGTVVFSLWWYEYYYWGQGTQVTVSS”, the “polyreactivity (PSR sort gate)” value is given as “low polyreactivity”.

Turning to “QVQIVESGGGLVQAGGILRLSCASSRSIFTVNTMGWYRQEHGKETELVAAINSRGGTTYYADSVKGRFTISRDNAKNTVYLQMISLKPEDTAFYYCAARTRIGLLYDYWGQGTQVTVSS”, the “polyreactivity (PSR sort gate)” value is reported as “high polyreactivity”.

On to “QVQIVESGGGLVQAGGRLRLSCSASGSIFDWYDMGWYRQAPGKERELVAAITTGGITNYADSVKGRFTLSRDNAKNTVYLQMNSLKPEDTAVYYCAADSLGVYDGDYWGQGTQVTVSS”, for which the “polyreactivity (PSR sort gate)” value is recorded as “low polyreactivity”.

Take “QVQIVESGGGLVQAGGSLRFSCAASGRTFWLNDMGWYRHAPGKERELVARISRRGGSTYYAHSVKGRFTISRDHAKNTVYLQIISLKPEDTAVYYCAAAIVTRSYKYDYWGQGTQVTVSS”: the “polyreactivity (PSR sort gate)” value is reported as “high polyreactivity”.

In the case of “QVQIVESGGGLVQAGGSLRIICAASGSTFDPNAMGWYRQAPGKERELVAGISTGGTRTYYADSVKGRFTISRDNAKNTVFLQLKSLKPEDTAVYYCAARFTYNVLDTIYRLYYWGQGTQVTVSS”, the “polyreactivity (PSR sort gate)” value is recorded as “high polyreactivity”.

On to “QVQIVESGGGLVQAGGSLRISCAASGLTFHRYAMGRYRQAPGKERELVAAINYSGGRTYYADSVKGRFTISRDNAKNTVYLQMNSLKPVDTAVYYCAAPRASGYYWGQGTQVTVSS”, for which the “polyreactivity (PSR sort gate)” value is listed as “high polyreactivity”.

For the sequence “QVQIVESGGGLVQAGGSLRISCAPSGLTFGYYAMGWYRQAPGTERELVAAITYRGGSTYYADSVKGRFTISRDNAKNTVYLQMNSLKPEDTAVYYCATDYFYYDYWGQGTQVTVSS”, the “polyreactivity (PSR sort gate)” value is listed as “low polyreactivity”.

Regarding “QVQIVESGGGLVQAGGSLRLICAASGRIFYRYAMGWYRQAPGKERELVAAISSGSSTNYADSVKGRFTISRDNAKNTVYLQMNSLKPEDTAVYYCNAERYGKSWRYCYWGQGTQVTVSS”, the “polyreactivity (PSR sort gate)” value is “high polyreactivity”.

For “QVQIVESGGGLVQAGGSLRLICAASGSTFSEYAMGWYRQAPGKERELVAAIRWSGGSTSYADSVKGRFTISRVNAKNTVYLQMNSLKPEDTAVYYCAAERFWYDGEVKLYVLSYYWGQGTQVTVSS”, the “polyreactivity (PSR sort gate)” value is “low polyreactivity”.

For the sequence “QVQIVESGGGLVQAGGSLRLRCAASGSISGRNGMGWYRQAPGKERELVAAISTSGASTYYADSVKGRFTISRDNSKNTVYLQMNSLKTEDTAGYYCARLWGRRGYGYWGQGTQVTVSS”, the “polyreactivity (PSR sort gate)” value is recorded as “high polyreactivity”.

In the case of “QVQIVESGGGLVQAGGSLRLSCAASGFIFWDYAMGWYRQAPGKERELVAAISDSGGDTYYADSVKGRFTISRDNAKNTVYLQMNSLKPEDTAVYYCAADVELWVFRGQQYDYWGQGTQVTVSS”, the “polyreactivity (PSR sort gate)” value is given as “low polyreactivity”.

As for “QVQIVESGGGLVQAGGSLRLSCAASGFNYRGYAMGWYRQAPGKERELVASIRWNGGSTYYADSVKGRFTISRDNAKNTVYLLMNSLKPEDTAVYYCAAAYRYYGVAYGYDWGQGTQVTVSS”, the “polyreactivity (PSR sort gate)” value was “high polyreactivity”.

Take “QVQIVESGGGLVQAGGSLRLSCAASGFTFYGYAMGLYRQAPGKERELVATISGRGGRTYYADSVKGLFTISRDNAKNTVYLQMNSLKPVDTAVYFCAAVSSYRYYGDYYWGQGTQVTVSS”: the “polyreactivity (PSR sort gate)” value is reported as “high polyreactivity”.

Consider “QVQIVESGGGLVQAGGSLRLSCAASGFTFYYYAMGWYRQAPGKERELVAAIDTGGSTNYADSVKGRFTISRDNAKNTVYLQMNRLKPEDTSVYYCNADTPDHYGHYDYWGQGTQVTVSS”, for which the “polyreactivity (PSR sort gate)” value was “low polyreactivity”.

“QVQIVESGGGLVQAGGSLRLSCAASGFTIPPYTMGWYRQAPRKEREFVATITASGGSTYYADSVKGRFTISRDNAKNTVYLQMNSLNPEDTAVYYCNADYYSLYFFAWYRTNDFWGQGTQVTVSS”: the “polyreactivity (PSR sort gate)” value was “low polyreactivity”.

In the case of “QVQIVESGGGLVQAGGSLRLSCAASGGTFYLYAKGWYRQAPGKERELVAAITTSGGSTYYADSVKGRFTISRDHAKNTVYLQMNSLKPEDTAVYYCNKDLSSTKFDYWGQGTQVTVSS”, the “polyreactivity (PSR sort gate)” value was “low polyreactivity”.

In the case of “QVQIVESGGGLVQAGGSLRLSCAASGITFGPYAMGWYRQAPWKERELVAAISYSGGNTYYADSVKGRFTISRDNAKNTVYLQMNSLKPEDTAVDYCARVQSLKYNYWGQGTQVTVSS”, the “polyreactivity (PSR sort gate)” value was “high polyreactivity”.

As to “QVQIVESGGGLVQAGGSLRLSCAASGITFPRYAMGWYRQAPGKESELVATITSRGGSTYYADSVKGRFTISRDNAKNTVYLQMISLKPEDTAVYYFNDRHYIFWSRYDYWGQGTQVTVSS”, the “polyreactivity (PSR sort gate)” value is listed as “high polyreactivity”.

For “QVQIVESGGGLVQAGGSLRLSCAASGITFSSYAMGWYRQAPGKERELVAAITRTGGRTYYADSVKGRFTISRDNAKNTVYLQMNSLKPEDTAVYYCAAYYIAYYYWGQGTQVTVSS”, the “polyreactivity (PSR sort gate)” value is listed as “high polyreactivity”.

For “QVQIVESGGGLVQAGGSLRLSCAASGNNFRYNTMGWYRQAPGKERELVAVITRRGSSTYYADSVKGRCTISRDNAKNTVYLQMNRLKPEDTAVYYCAAAPYYVTLVTRRDYWGQGTQVTVSS”, the “polyreactivity (PSR sort gate)” value is recorded as “high polyreactivity”.

For “QVQIVESGGGLVQAGGSLRLSCAASGRIFRSNTMGWYRPAPGKERELVARISKRGGSTNYADSVKGRFTISRDIAKNTVYLQMNRLKPEDTAVYYCAARYYYAGYYVKYYYWGQGTQVTVSS”, the “polyreactivity (PSR sort gate)” value is on record as “high polyreactivity”.

Consider “QVQIVESGGGLVQAGGSLRLSCAASGRIFYWNVMGWYRQAPGKERELVAAITRSSGGTSTYADSVKGRFTISRVNAKNTVYLQMNSLKPEDTAVYYCATRRRQAKSGRAYDYWGQGTQVTVSS”, for which the “polyreactivity (PSR sort gate)” value is reported as “high polyreactivity”.

“QVQIVESGGGLVQAGGSLRLSCAASGRTFAGNAMGWYRQAPGKERELVAGISSGGSTNNADSVKGRFTISRDNAKNTVYLQMNSLNPEDTAVYYCAKRYFRKGYPLFHYAYGYWGQGTQVTVSS”: the “polyreactivity (PSR sort gate)” value is given as “high polyreactivity”.

Turning to “QVQIVESGGGLVQAGGSLRLSCAASGRTFIGNVMGWYRQAPGKERELVAAISKSGTRTYYADSVKGRFTISRDNAKNTFYLQMNSLKPEDTAVYYCAKDHYPRTDDFGYWGQGTQVTVSS”, the “polyreactivity (PSR sort gate)” value was “high polyreactivity”.

As for “QVQIVESGGGLVQAGGSLRLSCAASGRTFKYYAMGWYRPAPGKERELVAAISYSGGSTYYADSVKGRFTISRDNAKNTVYLQMNSLKPEDTAVYYCAARFTRYYSGCDQKYDYWGQGTQVTVSS”, the “polyreactivity (PSR sort gate)” value is given as “high polyreactivity”.

Turning to “QVQIVESGGGLVQAGGSLRLSCAASGRTFPYYVMGWYRHAPGKERELVATISSSGRTYYADSVKGRFTISRDNAKNTVYLQMNSLKPEDTAVYYCAARFRWNQNYHFYYWGQGTQVTVSS”, the “polyreactivity (PSR sort gate)” value is on record as “high polyreactivity”.

Turning to “QVQIVESGGGLVQAGGSLRLSCAASGRTLYGYAMGWYRQAPGKEREMVASIRSGGSTNYADSVKGRFTISRDNAKNTVYLQMNCLKPEDTAVYYCADDPYYSYGYYHAHGRDVGYWGQGTQVTVSS”, the “polyreactivity (PSR sort gate)” value is reported as “low polyreactivity”.

On to “QVQIVESGGGLVQAGGSLRLSCAASGSIFGTYAMGWYRQAPGKERELVAAITRRGGSTFYADSVKGRFTISRDNAKNTVYLQMNSLKPEDTAVYDCAAPPYYWGQGTQVTVSS”, for which the “polyreactivity (PSR sort gate)” value is “high polyreactivity”.
